This is an account of results in US10919953 (dated 2021).

The chains are these.
T1: FcgRIa (human, UniProt P12314)
T1 chain: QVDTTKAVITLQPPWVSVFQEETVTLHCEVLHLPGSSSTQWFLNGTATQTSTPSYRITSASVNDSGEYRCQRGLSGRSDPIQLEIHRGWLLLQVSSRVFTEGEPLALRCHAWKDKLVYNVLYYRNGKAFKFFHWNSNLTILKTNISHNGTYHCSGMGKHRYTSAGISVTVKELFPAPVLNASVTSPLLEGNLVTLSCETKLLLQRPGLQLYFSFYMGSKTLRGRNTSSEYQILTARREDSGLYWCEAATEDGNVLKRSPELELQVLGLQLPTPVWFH

T2: FcgRIIb (human, UniProt P31994)
T2 chain: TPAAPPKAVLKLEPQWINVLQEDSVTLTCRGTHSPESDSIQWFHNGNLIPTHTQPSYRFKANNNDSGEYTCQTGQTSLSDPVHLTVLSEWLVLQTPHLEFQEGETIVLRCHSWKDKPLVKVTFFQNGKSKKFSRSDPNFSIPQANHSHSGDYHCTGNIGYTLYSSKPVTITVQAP

T3: FcgRIIaR (human, UniProt P12318)
T3 chain: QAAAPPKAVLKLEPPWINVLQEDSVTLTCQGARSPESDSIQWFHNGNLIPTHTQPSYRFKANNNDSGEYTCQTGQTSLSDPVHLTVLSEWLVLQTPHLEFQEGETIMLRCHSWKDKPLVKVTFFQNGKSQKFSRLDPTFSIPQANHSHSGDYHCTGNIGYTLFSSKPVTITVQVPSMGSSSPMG

T4: FcgRIIaH (human, UniProt P12318)
T4 chain: T3 chain with R134H

B1: IL6R-AP029/IL6R-BP408/IL6R-L (antibody)
chain 1: QVQLQESGPGLVKPSETLSLTCAVSGHSISHDHAWSWVRQPPGEGLEWIGFISYSGITNYNPSLQGRVTISRDNSKNTLYLQMNSLRAEDTAVYYCARSLARTTAMDYWGEGTLVTVSSASTKGPSVFPLAPSSKSTSGGTAALGCLVKDYFPEPVTVSWNSGALTSGVHTFPAVLQSSGLYSLSSVVTVPSSSLGTQTYICNVNHKPSNTKVDKKVEPKSCDKTHTCPPCPAPDLLGDDSVFLFPPKPKDTLMISRTPEVTCVVVDVSEEDGEVKFNWYVDGVEVHNAKTKPREEQDNSTYRVVSVLTVLHQDWLNGKEYKCKVSNKALPRPIEKTISKAKGQPREPQVYTLPPSRKELTKNQVSLTCLVKGFYPSDIAVEWESNGQPENNYKTTPPVLDSDGSFFLYSKLTVDKSRWQQGNVFSCSVMHEALHNRYTQKSLSLSP
chain 2: B1 chain 1 with L237Q, K358D, R437H, K441E
chain 3: not shown
B2: IL6R-AP029/IL6R-BP410/IL6R-L (antibody)
chain 1: B1 chain 1
chain 2: B1 chain 1 with L237T, K358D, R437H, K441E
chain 3: not shown
B3: IL6R-BP404/IL6R-L (antibody)
chain 1: B1 chain 1 with L236Y, K358D, R437H, K441E
chain 2: not shown
B4: IL6R-BP408/IL6R-L (antibody)
chain 1: B1 chain 1 with L237Q, K358D, R437H, K441E
chain 2: not shown
B5: IL6R-AP029/IL6R-BP407/IL6R-L (antibody)
chain 1: B1 chain 1
chain 2: B1 chain 1 with L237D, K358D, R437H, K441E
chain 3: not shown
B6: IL6R-BP264/IL6R-L (antibody)
chain 1: B1 chain 1 with K358D, R437H, K441E
chain 2: not shown
B7: IL6R-AP029/IL6R-BP409/IL6R-L (antibody)
chain 1: B1 chain 1
chain 2: B1 chain 1 with L237E, K358D, R437H, K441E
chain 3: not shown
B8: IL6R-BP419/IL6R-L (antibody)
chain 1: B1 chain 1 with L237F, K358D, R437H, K441E
chain 2: not shown
B9: IL6R-BP339/IL6R-L (antibody)
chain 1: B1 chain 1 with V266M, D298Y, R332A, K358D, R437H, K441E
chain 2: not shown
B10: IL6R-BP338/IL6R-L (antibody)
chain 1: B1 chain 1 with V266L, D298Y, R332A, K358D, R437H, K441E
chain 2: not shown
B11: IL6R-BP333/IL6R-L (antibody)
chain 1: B1 chain 1 with V266F, D298Y, R332A, K358D, R437H, K441E
chain 2: not shown
B12: IL6R-BP300/IL6R-L (antibody)
chain 1: B1 chain 1 with V264I, D298Y, R332A, K358D, R437H, K441E
chain 2: not shown
B13: IL6R-BP246/IL6R-L (antibody)
chain 1: B1 chain 1 with S269Q, E270D, K328A, K358D, R437H, K441E
chain 2: not shown
B14: IL6R-BP225/IL6R-L (antibody)
chain 1: B1 chain 1 with D235E, L236Y, E270H, G273P, D298Y, K328D, K358D, R437H, K441E
chain 2: not shown
B15: IL6R-BP233/IL6R-L (antibody)
chain 1: B1 chain 1 with D235E, L236Y, E270H, D298Y, R332K, K358D, R437H, K441E
chain 2: not shown
B16: IL6R-BP249/IL6R-L (antibody)
chain 1: B1 chain 1 with L236Y, E270D, K358D, R437H, K441E
chain 2: not shown
B17: IL6R-BP243/IL6R-L (antibody)
chain 1: B1 chain 1 with L236Y, E270D, D298Y, K358D, R437H, K441E
chain 2: not shown
B18: IL6R-BP220/IL6R-L (antibody)
chain 1: B1 chain 1 with E270D, R332K, K358D, R437H, K441E
chain 2: not shown
B19: IL6R-BP257/IL6R-L (antibody)
chain 1: B1 chain 1 with S126E, E270D, D298Y, K358D, R437H, K441E
chain 2: not shown
B20: IL6R-BP260/IL6R-L (antibody)
chain 1: B1 chain 1 with S126E, E270D, K358D, R437H, K441E
chain 2: not shown
B21: IL6R-AP009/IL6R-BP259/IL6R-L (antibody)
chain 1: B1 chain 1 with E270D
chain 2: B1 chain 1 with S126D, E270D, K358D, R437H, K441E
chain 3: not shown
B22: IL6R-BP256/IL6R-L (antibody)
chain 1: B1 chain 1 with S126D, E270D, D298Y, K358D, R437H, K441E
chain 2: not shown
B23: IL6R-BP259/IL6R-L (antibody)
chain 1: B1 chain 1 with S126D, E270D, K358D, R437H, K441E
chain 2: not shown
B24: IL6R-AP009/IL6R-BP260/IL6R-L (antibody)
chain 1: B1 chain 1 with E270D
chain 2: B1 chain 1 with S126E, E270D, K358D, R437H, K441E
chain 3: not shown
B25: IL6R-AP002/IL6R-BP256/IL6R-L (antibody)
chain 1: B1 chain 1 with E270D, D298Y
chain 2: B1 chain 1 with S126D, E270D, D298Y, K358D, R437H, K441E
chain 3: not shown
B26: IL6R-AP002/IL6R-BP257/IL6R-L (antibody)
chain 1: B1 chain 1 with E270D, D298Y
chain 2: B1 chain 1 with S126E, E270D, D298Y, K358D, R437H, K441E
chain 3: not shown
B27: IL6R-BP267/IL6R-L (antibody)
chain 1: B1 chain 1 with D298Y, R332A, K358D, R437H, K441E
chain 2: not shown
B28: IL6R-BP228/IL6R-L (antibody)
chain 1: B1 chain 1 with D235E, L236Y, S269Q, E270D, D298Y, K328D, K358D, R437H, K441E
chain 2: not shown
B29: IL6R-BP239/IL6R-L (antibody)
chain 1: B1 chain 1 with L236Y, S269Q, E270D, K328A, K358D, R437H, K441E
chain 2: not shown
B30: IL6R-BP237/IL6R-L (antibody)
chain 1: B1 chain 1 with L236Y, S269Q, E270D, K328A, R332K, K358D, R437H, K441E
chain 2: not shown
B31: IL6R-BP208/IL6R-L (antibody)
chain 1: B1 chain 1 with E270D, D298Y, K358D, R437H, K441E
chain 2: not shown

Positions count from the first letter of the chain named.

For the first test, the target named is T1, FcgRIa. Put plainly: SPR.
In the case of B1, binding was characterised by a dissociation constant (Kd) of 20 nM.

As for B2, the Kd (commonly the constant that tells how readily two partners part at equilibrium) was 17 nM.

In the case of B3, the Kd came out at 10 nM.

The molecule B4 registered a Kd of 140 nM.

B5 showed a Kd of 13 nM.

Consider B6, for which the Kd came to 7.4 nM.

As to B7, binding was characterised by a dissociation constant (Kd) of 19 nM.

B8 returned a Kd of 40 nM.

A further test deals with T2, FcgRIIb. Put plainly: SPR. In general terms: In SPR one partner is held on a chip, and binding of the other changes the refractive index at the surface.
The molecule B9 came in with a Kd of 130 nM.

Turning to B10, the Kd turned out to be 150 nM.

B11 gave a Kd of 120 nM.

B12 showed a Kd of 58 nM.

The next test concerns the target T1, FcgRIa. Put plainly: SPR. The source holds these as a separate data set.
Take B13: binding was characterised by a dissociation constant (Kd) of 8 nM.

Take B14: the equilibrium dissociation constant (Kd) came to 65 nM.

In turn, B15 returned a dissociation constant Kd of 70 nM.

The molecule B16 returned a Kd of 7 nM.

On to B17, for which binding was put at a Kd of 3 nM.

For the molecule B18, the equilibrium dissociation constant (Kd) was 20 nM.

The target of a further test is T1, FcgRIa. Put plainly: SPR. This is another data set of the same source.
B19: the Kd was determined as 0.31 nM.

In turn, B20 returned a Kd of 0.31 nM.

Consider B21, for which the Kd was found to be 3.5 nM.

In the case of B22, the Kd came to 2 nM.

Turning to B23, the Kd worked out at 3.1 nM.

Regarding B24, the Kd worked out at 1.7 nM.

Consider B25, for which the affinity, expressed as Kd, was 3.6 nM.

B26 yielded a Kd of 1.9 nM.

The target of a further test is T1, FcgRIa. Put plainly: SPR. This is another data set of the same source.
B9 showed a Kd of 4.6 nM.

Molecule B10 came in with a Kd of 15 nM.

For the molecule B11, the dissociation constant Kd is 9.1 nM.

As for B12, the equilibrium dissociation constant (Kd) amounted to 9.6 nM.

On to B27, for which the Kd was 4 nM.

The next test deals with T3, FcgRIIaR. Put plainly: SPR.
In the case of B1, the Kd was 860 nM.

B2 came in with a Kd of 660 nM.

In turn, B3 came in with a Kd of 360 nM.

With B4, the Kd turned out to be 34000 nM.

In turn, B5 had a Kd of 630 nM.

Consider B7, for which the Kd is 630 nM.

As for B8, the Kd was 830 nM.

For a further test, the target named is T4, FcgRIIaH. Put plainly: SPR.
Molecule B21 returned a Kd of 6600 nM.

On to B24, for which the Kd was 5400 nM.

For the molecule B25, the Kd came to 4200 nM.

B26 displayed a Kd of 4900 nM.

For another test, the target named is T2, FcgRIIb. Put plainly: SPR. This is another data set of the same source.
With B28, the equilibrium dissociation constant (Kd) was 40 nM.

In turn, B29 registered a Kd of 60 nM.

With B30, binding was characterised by a dissociation constant (Kd) of 100 nM.

Another test has as its target T2, FcgRIIb. Put plainly: SPR. This is another data set of the same source.
B19 displayed a Kd of 430 nM.

B20 registered a Kd of 380 nM.

In turn, B21 returned a Kd of 3.9 nM.

Turning to B22, binding was characterised by a dissociation constant (Kd) of 87 nM.

Regarding B23, the dissociation constant (Kd) amounted to 110 nM.

The molecule B24 had a Kd of 4.2 nM.

Consider B25, for which the Kd was determined as 4.1 nM.

With B26, binding was put at a Kd of 4.7 nM.

A further test concerns the target T3, FcgRIIaR. Put plainly: SPR. This is another data set of the same source.
For B9, the dissociation constant Kd is 1400 nM.

The molecule B10 had a Kd of 2200 nM.

Molecule B11 displayed a Kd of 1500 nM.

In the case of B12, the dissociation constant (Kd) turned out to be 690 nM.

The next test concerns the target T2, FcgRIIb. Put plainly: SPR. The source holds these as a separate data set.
On to B1, for which binding was put at a Kd of 26 nM.

The molecule B2 gave a Kd of 22 nM.

Take B3: the dissociation constant (Kd) is 11 nM.

With B4, binding was put at a Kd of 720 nM.

The molecule B5 registered a Kd of 19 nM.

The molecule B7 returned a Kd of 15 nM.

Regarding B8, the Kd came to 26 nM.

The next test deals with T3, FcgRIIaR. Put plainly: SPR. This is another data set of the same source.
The molecule B19 came in with an equilibrium dissociation constant (Kd) of 1300 nM.

Molecule B21 came in with a Kd of 190 nM.

As for B22, the Kd came out at 730 nM.

Molecule B23 showed a Kd of 860 nM.

B31: the affinity, expressed as Kd, was 850 nM.

In turn, B24 yielded a Kd of 140 nM.

With B25, the Kd is 140 nM.

Turning to B26, the Kd was found to be 130 nM.
